The supplement of paper PMC9112550, “Optimization of the antimicrobial peptide Bac7 by deep mutational scanning” (BMC Biology, 2022)

Test system: Escherichia coli TOP10
Assay: shrunken log2 fold change of peptide-encoding DNA abundance (4.5 h post-induction vs induction); higher = less antimicrobial activity (less host growth inhibition)
Conditions: time post-induction: 4.5 h; library: site-saturation at positions 5, 18, 19, 20
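Note: peptides expressed intracellularly from a pBAD plasmid library in pooled LB shake-flask culture, induced with 0.3% L-arabinose, DNA abundance read by NGS, three biological replicates, DESeq2 with apeglm shrinkage.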

Sequence | shrunken log2 fold change
RRIRARPPRLPRPRPRPVMNPRP | -0.0562
RRIRDRPPRLPRPRPRPEPTPRP | 0.885
RRIRDRPPRLPRPRPRPLTHPRP | 0.179
RRIRPRPPRLPRPRPRPRFNPRP | -0.181
RRIRTRPPRLPRPRPRPIHTPRP | -0.371
RRIRIRPPRLPRPRPRPGNMPRP | -0.105
RRIRQRPPRLPRPRPRPNIWPRP | -0.0842
RRIRQRPPRLPRPRPRPTWDPRP | 0.0355
RRIRHRPPRLPRPRPRPYKDPRP | -0.017
RRIRFRPPRLPRPRPRPWECPRP | -0.0123
RRIRYRPPRLPRPRPRPKFDPRP | -0.138
RRIRRRPPRLPRPRPRPIRPPRP | 0.198
RRIRERPPRLPRPRPRPWVAPRP | -0.00272
RRIRNRPPRLPRPRPRPAAEPRP | 0.232
RRIRSRPPRLPRPRPRPAQVPRP | 0.09
RRIRLRPPRLPRPRPRPLILPRP | -0.429
RRIRARPPRLPRPRPRPQHTPRP | 0.156
RRIRNRPPRLPRPRPRPDKHPRP | -0.0308
RRIRCRPPRLPRPRPRPWYEPRP | -0.135
RRIRLRPPRLPRPRPRPSFGPRP | 0.197
RRIRNRPPRLPRPRPRPHLHPRP | -0.121
RRIRKRPPRLPRPRPRPANPPRP | 0.071
RRIRCRPPRLPRPRPRPFPVPRP | 0.11
RRIRVRPPRLPRPRPRPILDPRP | -0.224
RRIRGRPPRLPRPRPRPFFFPRP | 0.696

Sequence | shrunken log2 fold change
RRIRERPPRLPRPRPRPKLHPRP | -0.0464
RRIRFRPPRLPRPRPRPRNDPRP | -0.218
RRIRMRPPRLPRPRPRPRLKPRP | 1.82
RRIRNRPPRLPRPRPRPGVDPRP | -0.154
RRIRSRPPRLPRPRPRPCRSPRP | -0.0435
RRIRMRPPRLPRPRPRPDICPRP | -0.01
RRIRKRPPRLPRPRPRPYTEPRP | -0.295
RRIRYRPPRLPRPRPRPYGTPRP | -0.0957
RRIRCRPPRLPRPRPRPWDCPRP | -0.469
RRIRPRPPRLPRPRPRPHKHPRP | -0.268
RRIRQRPPRLPRPRPRPARYPRP | 0.0932
RRIRDRPPRLPRPRPRPDKPPRP | 0.00451
RRIRNRPPRLPRPRPRPRYAPRP | -0.0268
RRIRWRPPRLPRPRPRPSLRPRP | 0.0372
RRIRPRPPRLPRPRPRPTCPPRP | 0.0562
RRIRDRPPRLPRPRPRPAHGPRP | -0.0897
RRIRMRPPRLPRPRPRPDAYPRP | 0.414
RRIRWRPPRLPRPRPRPKTLPRP | 0.19
RRIRFRPPRLPRPRPRPCAHPRP | -0.197
RRIRFRPPRLPRPRPRPTCFPRP | -0.157
RRIRIRPPRLPRPRPRPYFAPRP | -0.694
RRIRIRPPRLPRPRPRPWLHPRP | -0.496
RRIRNRPPRLPRPRPRPMWQPRP | -0.222
RRIRVRPPRLPRPRPRPQWHPRP | -0.311
RRIRARPPRLPRPRPRPPSFPRP | 0.415

Sequence | shrunken log2 fold change
RRIRYRPPRLPRPRPRPIRHPRP | 0.0879
RRIRLRPPRLPRPRPRPEMYPRP | -0.00133
RRIRDRPPRLPRPRPRPHCGPRP | 0.00511
RRIRKRPPRLPRPRPRPAFGPRP | 0.564
RRIRFRPPRLPRPRPRPPGWPRP | 0.448
RRIRVRPPRLPRPRPRPKCLPRP | 0.127
RRIRWRPPRLPRPRPRPSEQPRP | -0.247
RRIRHRPPRLPRPRPRPCSPPRP | -0.232
RRIRSRPPRLPRPRPRPNMDPRP | -0.184
RRIRYRPPRLPRPRPRPHWVPRP | 0.0405
RRIRKRPPRLPRPRPRPGNGPRP | 0.351
RRIRIRPPRLPRPRPRPYQAPRP | -0.342
RRIRDRPPRLPRPRPRPVPQPRP | 0.0622
RRIRRRPPRLPRPRPRPNKQPRP | -0.00565
RRIRPRPPRLPRPRPRPPSPPRP | 0.439
RRIRYRPPRLPRPRPRPITKPRP | -0.184
RRIRPRPPRLPRPRPRPSIGPRP | 0.166
RRIRCRPPRLPRPRPRPWVPPRP | -0.423
RRIRKRPPRLPRPRPRPKTPPRP | 0.477
RRIRHRPPRLPRPRPRPKHMPRP | -0.0234
RRIRHRPPRLPRPRPRPEQLPRP | -0.0602
RRIRKRPPRLPRPRPRPWWRPRP | -0.108
RRIRERPPRLPRPRPRPCQTPRP | -0.397
RRIRSRPPRLPRPRPRPKNHPRP | -0.215
RRIRDRPPRLPRPRPRPWYMPRP | -0.315

Sequence | shrunken log2 fold change
RRIRTRPPRLPRPRPRPPHKPRP | 0.242
RRIRQRPPRLPRPRPRPQSEPRP | -0.173
RRIRLRPPRLPRPRPRPMPDPRP | -0.00255
RRIRRRPPRLPRPRPRPWFPPRP | -0.44
RRIRDRPPRLPRPRPRPNNLPRP | -0.556
RRIRARPPRLPRPRPRPDVSPRP | 0.106
RRIRGRPPRLPRPRPRPSDQPRP | 0.796
RRIRVRPPRLPRPRPRPAAPPRP | 0.452
RRIRKRPPRLPRPRPRPKYAPRP | 0.208
RRIRFRPPRLPRPRPRPTQKPRP | 0.94
RRIRARPPRLPRPRPRPCPGPRP | -0.258
RRIRIRPPRLPRPRPRPMFKPRP | -0.286
RRIRIRPPRLPRPRPRPLCTPRP | -0.407
RRIRNRPPRLPRPRPRPFVHPRP | -0.568
RRIRLRPPRLPRPRPRPNWYPRP | -0.771
RRIRCRPPRLPRPRPRPRKGPRP | 0.201
RRIRIRPPRLPRPRPRPDPCPRP | -0.224
RRIRERPPRLPRPRPRPDMRPRP | -3.48e-05
RRIRYRPPRLPRPRPRPLEHPRP | -0.26
RRIRSRPPRLPRPRPRPKPPPRP | 0.292
RRIRCRPPRLPRPRPRPDLHPRP | -0.252
RRIRNRPPRLPRPRPRPHTLPRP | -0.39
RRIRKRPPRLPRPRPRPSWAPRP | 0.186
RRIRARPPRLPRPRPRPKCGPRP | 0.432
RRIRFRPPRLPRPRPRPVSEPRP | 0.114

Sequence | shrunken log2 fold change
RRIRRRPPRLPRPRPRPYMMPRP | -0.699
RRIRHRPPRLPRPRPRPYWYPRP | -1.25
RRIRYRPPRLPRPRPRPAVCPRP | -0.0135
RRIRKRPPRLPRPRPRPAEQPRP | 0.452
RRIRYRPPRLPRPRPRPHAQPRP | -0.0405
RRIRYRPPRLPRPRPRPVKEPRP | 0.00241
RRIRMRPPRLPRPRPRPKHQPRP | 0.634
RRIRARPPRLPRPRPRPPRQPRP | 0.769
RRIRYRPPRLPRPRPRPNSTPRP | -1.01
RRIRSRPPRLPRPRPRPTDNPRP | -0.249
RRIRVRPPRLPRPRPRPWIDPRP | -0.134
RRIRVRPPRLPRPRPRPVSIPRP | 0.126
RRIRFRPPRLPRPRPRPNAGPRP | -0.0253
RRIRLRPPRLPRPRPRPDNEPRP | -0.162
RRIRLRPPRLPRPRPRPRSCPRP | -0.0664
RRIRMRPPRLPRPRPRPDSQPRP | 1.35
RRIRTRPPRLPRPRPRPGTTPRP | -0.342
RRIRERPPRLPRPRPRPAFQPRP | 0.0677
RRIRCRPPRLPRPRPRPPSLPRP | 0.413
RRIRYRPPRLPRPRPRPWFKPRP | -0.12
RRIRFRPPRLPRPRPRPVMIPRP | 0.122
RRIRQRPPRLPRPRPRPATEPRP | -0.037
RRIRGRPPRLPRPRPRPLEYPRP | 0.123
RRIRMRPPRLPRPRPRPNHPPRP | -0.0733
RRIRERPPRLPRPRPRPKSNPRP | -0.472

Sequence | shrunken log2 fold change
RRIRRRPPRLPRPRPRPTQTPRP | 0.338
RRIRCRPPRLPRPRPRPRCNPRP | 0.00442
RRIRRRPPRLPRPRPRPSGEPRP | 0.387
RRIRGRPPRLPRPRPRPQAFPRP | 0.112
RRIRPRPPRLPRPRPRPNLNPRP | -0.369
RRIRTRPPRLPRPRPRPDTWPRP | 0.0221
RRIRVRPPRLPRPRPRPLMGPRP | 0.0412
RRIRMRPPRLPRPRPRPNYTPRP | -0.434
RRIRTRPPRLPRPRPRPYLNPRP | -0.484
RRIRDRPPRLPRPRPRPIPKPRP | -0.0116
RRIRHRPPRLPRPRPRPNWPPRP | 0.234
RRIRCRPPRLPRPRPRPCLNPRP | -0.589
RRIRDRPPRLPRPRPRPKAVPRP | -0.00884
RRIRDRPPRLPRPRPRPHTPPRP | 0.0203
RRIRWRPPRLPRPRPRPEKCPRP | 0.0983
RRIRLRPPRLPRPRPRPRRFPRP | 0.142
RRIRVRPPRLPRPRPRPARLPRP | 0.266
RRIRIRPPRLPRPRPRPHSVPRP | -0.0376
RRIRIRPPRLPRPRPRPPYVPRP | -0.121
RRIRERPPRLPRPRPRPMWTPRP | -0.306
RRIRRRPPRLPRPRPRPHMMPRP | 0.176
RRIRERPPRLPRPRPRPHYWPRP | -0.353
RRIRERPPRLPRPRPRPVNIPRP | -0.0402
RRIRSRPPRLPRPRPRPVGGPRP | 0.433
RRIRMRPPRLPRPRPRPPKGPRP | 0.873
